From paper PMC4666391 (Nucleic Acids Research, 2015)

Legend:
[1] = molecular target: T1, pre-RC (MCM2–7 double-hexamer loaded on pUC19-ARS1 DNA) (S. cerevisiae, UniProt P29469 1-868; P24279 1-971; P30665 1-933; P29496 1-775; P53091 1-1017; P38132 …); test: SEC; gel-filtration based pre-RC assay: Sld2 and Sld3 added together to pre-RC, no DDK; 40 nM each for 1 min, titrations (Sld2 60 and 90 nM; Sld3 90 nM) and time course 0.5–30 min, over which binding of both decreased; conditions: both partners purified
T1 construct: Mcm2, subunit of MCM2–7, S. cerevisiae; Mcm3, subunit of MCM2–7, S. cerevisiae; Mcm4, subunit of MCM2–7, S. cerevisiae; Mcm5, subunit of MCM2–7, S. cerevisiae; Mcm6, subunit of MCM2–7, S. cerevisiae; Mcm7, subunit of MCM2–7, S. cerevisiae; Loaded around double-stranded plasmid DNA; also called pre-replicative complex; source: assembled in solution from purified ORC, Cdc6, Cdt1 and MCM2–7 (40 nM …)

[2] = molecular target: T2, pre-RC (MCM2–7 double-hexamer on DNA) in the presence of DDK (S. cerevisiae, UniProt P29469 1-868; P24279 1-971; P30665 1-933; P29496 1-775; P53091 1-1017; P38132 …, phosphorylated by DDK, sites not printed | phosphorylated by DDK, sites not printed | phosphorylated by DDK, sites not given); test: SEC; gel-filtration based pre-RC assay: Sld3 or Sld2 (40 nM) added alone to pre-RC with DDK (5 nM); signal corrected for Mcm2 and compared with the reaction without DDK; conditions: both partners purified
T2 construct: Mcm2, subunit of MCM2–7, S. cerevisiae; Mcm3, subunit of MCM2–7, S. cerevisiae; Mcm4, subunit of MCM2–7, S. cerevisiae; Mcm5, subunit of MCM2–7, S. cerevisiae; Mcm6, subunit of MCM2–7, S. cerevisiae; Mcm7, subunit of MCM2–7, S. cerevisiae; DDK was added together with the factors, so the extent of phosphorylation at early times is not known; also called DDK-phosphorylated pre-RC; source: assembled …

- fold reduction of binding when Sld3 is added, against Sld2 alone [1]: ~4 fold
- fold increase of binding with DDK, against the pre-RC without DDK [2]: ~2 fold
B1: Sld2 (purified) (natural protein, S. cerevisiae, UniProt P34252 1-453, looked up)
chain: MYSFELDKLKIELKTWEHDFIDKNKREPTRDDIKSLRTVRQMYKQYSTLKKKQSLQRQKVDTQESVELPAHKKDHDEVVEIGPTPQVYGKAISIFDMNLSPIKPIYMTFTNNIDVNNDNSKTISNESSPRKTILLKSSPADRTLVAEPISSVKRQLNFQMLNASSTRTPTSSPCKNRNGKLVEIKKCSPTINPPLESGKPSGYYGPNSPLKLDEENIHLNISLNSSTKRRLQIAYPSLQKTPSKDQADISTSFSPSPLIRRPLTKSLIELAREHTEIVKEFGVLQEEDIEEEEEGEEGENGYDEKNHEDDFGLEDELIRPKVVKDIFQEDDDNDDSQAREDTFIRKRPKRRKVIRRLRDNDPETETAGFERDVHKELVKLKRRKVAEFLGSTSQISDTEFEHDPEASSGVVSSEQKPTAKRKGRKKYNLVSNNFRRLKLPKKNRFSNGRWGRR
notes: Sld2, S. cerevisiae; it may or may not be the same preparation as GST-Sld2; also called purified Sld2; source: purified
